Test results reported in patent US20240182536A1 (MURAL ONCOLOGY, published 2024).
Where a chain is given by its changes, count along the chain named. Numbers in names are those of the source.

T1: interleukin 18 binding protein (IL-18BP) (UniProt O95998 31-194)
T1 sequence (looked up): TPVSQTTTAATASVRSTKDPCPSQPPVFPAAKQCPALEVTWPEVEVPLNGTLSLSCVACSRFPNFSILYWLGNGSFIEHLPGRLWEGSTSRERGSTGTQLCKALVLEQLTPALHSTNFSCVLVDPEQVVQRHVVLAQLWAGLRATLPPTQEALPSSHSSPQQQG

T2: IL-18 receptors on HEK-Blue IL-18 reporter cells (UniProt Q13478 19-541; O95256 20-599, limits assumed)
T2 sequence (looked up) 1: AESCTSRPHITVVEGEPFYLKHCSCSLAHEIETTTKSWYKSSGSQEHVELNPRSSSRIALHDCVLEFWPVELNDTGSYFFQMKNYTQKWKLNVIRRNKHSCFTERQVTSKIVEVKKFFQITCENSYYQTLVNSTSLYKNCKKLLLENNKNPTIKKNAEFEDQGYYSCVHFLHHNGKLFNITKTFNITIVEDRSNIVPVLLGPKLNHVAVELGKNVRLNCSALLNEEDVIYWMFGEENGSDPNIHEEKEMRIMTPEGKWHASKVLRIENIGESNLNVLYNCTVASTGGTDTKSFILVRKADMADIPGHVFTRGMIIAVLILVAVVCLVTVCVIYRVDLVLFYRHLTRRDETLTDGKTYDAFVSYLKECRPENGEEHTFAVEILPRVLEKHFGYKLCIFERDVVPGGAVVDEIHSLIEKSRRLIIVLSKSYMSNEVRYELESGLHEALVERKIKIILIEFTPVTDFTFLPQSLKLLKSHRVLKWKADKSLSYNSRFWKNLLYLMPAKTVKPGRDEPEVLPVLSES
T2 sequence (looked up) 2: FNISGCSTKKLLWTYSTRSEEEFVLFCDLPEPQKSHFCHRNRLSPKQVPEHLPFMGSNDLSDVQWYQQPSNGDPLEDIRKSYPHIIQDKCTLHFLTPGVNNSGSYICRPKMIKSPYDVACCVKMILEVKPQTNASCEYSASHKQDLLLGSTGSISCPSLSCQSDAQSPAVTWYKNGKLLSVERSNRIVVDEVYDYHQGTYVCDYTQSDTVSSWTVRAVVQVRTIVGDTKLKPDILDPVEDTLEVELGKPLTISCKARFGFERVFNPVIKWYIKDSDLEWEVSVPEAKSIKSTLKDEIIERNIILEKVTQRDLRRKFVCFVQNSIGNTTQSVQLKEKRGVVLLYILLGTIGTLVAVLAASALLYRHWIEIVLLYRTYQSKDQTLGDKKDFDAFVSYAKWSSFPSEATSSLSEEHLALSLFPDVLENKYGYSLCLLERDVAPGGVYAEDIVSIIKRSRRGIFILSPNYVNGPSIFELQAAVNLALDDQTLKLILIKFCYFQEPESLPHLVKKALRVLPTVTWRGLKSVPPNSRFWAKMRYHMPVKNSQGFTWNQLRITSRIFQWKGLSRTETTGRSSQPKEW

B1: IL-18 variant K53H, S55Y, Q56H (ligand)
chain: YFGKLESKLSVIRNLNDQVLFIDQGNRPLFEDMTDSDMRDNAPRTIFIISMYHDYHPRGMAVTISVKSEKISTLSSENKIISFKEMNPPDNIKDTKSDIIFFQRSVPGHDNKMQFESSSYEGYFLASEKERDLFKLILKKEDELGDRSIMFTVQNED
B2: IL-18 variant K53L, S55G (ligand)
chain: B1 chain with H53L, Y55G, H56Q
B3: IL-18 variant K53H, S55R (ligand)
chain: B1 chain with Y55R, H56Q
B4: IL-18 variant T34N, S36Y, D40H, N41T, K53G, S55Y (ligand)
chain: B1 chain with T34N, S36Y, D40H, N41T, H53G, H56Q
B5: IL-18 variant T34N, S36Y, D37E, D40Q, N41Q, K53D, S55D (ligand)
chain: B1 chain with T34N, S36Y, D37E, D40Q, N41Q, H53D, Y55D, H56Q
B6: IL-18 variant T34S, S36L, D37E, D40Y, N41M, K53T, S55K, P107K, H109Q (ligand)
chain: B1 chain with T34S, S36L, D37E, D40Y, N41M, H53T, Y55K, H56Q, P107K, H109Q
B7: IL-18 variant K53H, S55H, N87D, H109I (ligand)
chain: B1 chain with Y55H, H56Q, N87D, H109I
B8: IL-18 variant K53D, S55L (ligand)
chain: B1 chain with H53D, Y55L, H56Q
B9: IL-18 variant L15I, K53H, S55M (ligand)
chain: B1 chain with L15I, Y55M, H56Q

Legend:
[1] = target: T1, interleukin 18 binding protein (IL-18BP); experiment: cell-based or functional assay
[2] = target: T2, IL-18 receptors on HEK-Blue IL-18 …; experiment: cell-based or functional assay

| Binder | HEK-Blue activity, +100 nM BP, DF-10000 [1] | HEK-Blue activity, +100 nM BP, DF-100,000 [1] | HEK-Blue activity, +100 nM BP, DF-1,000,000 [1] | Ratio (-BP/+BP), DF-10000 [1] | Ratio (-BP/+BP), DF-100,000 [1] | Ratio (-BP/+BP), DF-1,000,000 [1] | HEK-Blue activity, No BP, DF-10000 [2] | HEK-Blue activity, No BP, DF-100,000 [2] | HEK-Blue activity, No BP, DF-1,000,000 [2] |
| --- | --- | --- | --- | --- | --- | --- | --- | --- | --- |
| B1 | 0.12 | 0.09 | 0.09 | 1.05 | 1.03 | 0.96 | 0.12 | 0.1 | 0.09 |
| B2 | 0.14 | 0.11 | 0.11 | 0.87 | 0.92 | 0.89 | 0.12 | 0.1 | 0.09 |
| B3 | 0.12 | 0.09 | 0.09 | 0.97 | 1.09 | 1 | 0.12 | 0.1 | 0.09 |
| B4 | 0.11 | 0.09 | 0.09 | 1.08 | 1.02 | 0.97 | 0.12 | 0.1 | 0.09 |
| B5 | 0.1 | 0.1 | 0.09 | 1.11 | 0.96 | 1 | 0.11 | 0.09 | 0.09 |
| B6 | 0.1 | 0.1 | 0.09 | 1.11 | 0.98 | 0.98 | 0.11 | 0.1 | 0.09 |
| B7 | 0.1 | 0.1 | 0.1 | 1.1 | 0.96 | 0.88 | 0.11 | 0.1 | 0.09 |
| B8 | 0.1 | 0.09 | 0.09 | 1.02 | 1.03 | 1.01 | 0.11 | 0.09 | 0.09 |
| B9 | 0.12 | 0.1 | 0.08 | 0.9 | 0.99 | 1.02 | 0.11 | 0.1 | 0.09 |
